B1: WalK-LgBIT (native WalK) [S. aureus] / WalR-SmBIT (native WalR) [S. aureus] (parent)
chain 1: MARKVVVVDDEKPIADILEFNLKKEGYDVYCAYDGNDAVDLIYEEEPDIVLLDIMLPGRDGMEVCREVRKKYEMPIIMLTAKDSEIDKVLGLELGADDYVTKPFSTRELIARVKANLRRHYSQPAQDTGNVTNEITIKDIVIYPDAYSIKKRGEDIELTHREFELFHYLSKHMGQVMTREHLLQTVWGYDYFGDVRTVDVTIRRLREKIEDDPSHPEYIVTRRGVGYFLQQHE
chain 2: MKWLKQLQSLHTKLVIVYVLLIIIGMQIIGLYFTNNLEKELLDNFKKNITQYAKQLEISIEKVYDEKGSVNAQKDIQNLLSEYANRQEIGEIRFIDKDQIIIATTKQSNRSLINQKANDSSVQKALSLGQSNDHLILKDYGGGKDRVWVYNIPVKVDKKVIGNIYIESKINDVYNQLNNINQIFIVGTAISLLITVILGFFIARTITKPITDMRNQTVEMSRGNYTQRVKIYGNDEIGELALAFNNLSKRVQEAQANTESEKRRLDSVITHMSDGIIATDRRGRIRIVNDMALKMLGMAKEDIIGYYMLSVLSLEDEFKLEEIQENNDSFLLDLNEEEGLIARVNFSTIVQETGFVTGYIAVLHDVTEQQQVERERREFVANVSHELRTPLTSMNSYIEALEEGAWKDEELAPQFLSVTREETERMIRLVNDLLQLSKMDNESDQINKEIIDFNMFINKIINRHEMSAKDTTFIRDIPKKTIFTEFDPDKMTQVFDNVITNAMKYSRGDKRVEFHVKQNPLYNRMTIRIKDNGIGIPINKVDKIFDRFYRVDKARTRKMGGTGLGLAISKEIVEAHNGRIWANSVEGQGTSIFITLPCEVIEDGDWDE

Variants of: B1
Assay: split luciferase (SmBIT/LgBIT) interaction assay in S. aureus
Settings: with WalR-SmBIT (native WalR) [S. aureus]; maximum of the RLU curve, mutant peak at about 170 min, Wt peak at about 120 min; growth in LB in NRS384 Wt; sub-panel labelled H385A; parent: 8e+03; read off a plot

Q: For chain 2 H385A, which response is on record?
A: 20000 RLU

Same assay, conditions: with WalK-LgBIT (native WalK) [S. aureus]; maximum of the RLU curve, mutant peak at about 170 min, Wt peak at about 120 min; growth in LB in NRS384 Wt; sub-panel labelled D53A/T101A; parent: 8e+03; read off a plot

Q: How did the response turn out when chain 1 D53A T101A was run?
A: 8000 RLU

Same assay, conditions: with WalR-SmBIT (native WalR) [S. aureus]; maximum of the RLU curve, mutant peak at about 110 min, Wt peak at about 130 min; growth in LB in NRS384 Wt; sub-panel labelled Y32C; parent: 1.8e+04; read off a plot

Q: chain 2 Y32C was tested. Which response did it give?
A: 55000 RLU

Same assay, conditions: with WalK-LgBIT (native WalK) [S. aureus]; maximum of the RLU curve, mutant peak at about 140 min, Wt peak at about 125 min; growth in LB in NRS384 Wt; sub-panel labelled D53A; parent: 8.5e+03; read off a plot

Q: For chain 1 D53A, which response is on record?
A: 17000 RLU

Same assay, conditions: with WalK-LgBIT (native WalK) [S. aureus]; maximum of the RLU curve, mutant peak at about 140 min, Wt peak at about 125 min; growth in LB in NRS384 Wt; sub-panel labelled D53E; parent: 8e+03; read off a plot

Q: For chain 1 D53E, which response is on record?
A: 150000 RLU

Same assay, conditions: with WalR-SmBIT (native WalR) [S. aureus]; maximum of the RLU curve, mutant peak at about 165 min, Wt peak at about 120 min; growth in LB in NRS384 Wt; sub-panel labelled G223D; parent: 8e+03; read off a plot

Q: How did the response turn out when chain 2 G223D was run?
A: 19000 RLU

Same assay, conditions: with WalR-SmBIT (native WalR) [S. aureus]; maximum of the RLU curve, mutant peak at about 125 min, Wt peak at about 120 min; growth in LB in NRS384 Wt; sub-panel labelled T389A; parent: 8e+03; read off a plot

Q: Which response does the source give for chain 2 T389A here?
A: 60000 RLU

From article PMC10746227
